According to the nanobody polyreactivity screen of Harvey et al. (2022):

Experiment: yeast display, Sf9 membrane polyspecificity reagent, FACS + sequencing; frameworks hold sequencing errors
How it was run: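 In a synthetic yeast display library (Saccharomyces cerevisiae BJ5465), nanobody expression was induced with galactose for 36–48 hours. FACS gates were set low and high (top ~1%) using anti-HA fluorescence for expression and streptavidin fluorescence for binding of the Sf9 membrane reagent. Each polyreactivity label is drawn from the gate of origin.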

Sequence | polyreactivity (PSR sort gate)
QVQLVESGGGLVQAGGSLRLSCAASGSTIRYYAMGWYRQAPGKERELVAAITKSGGSTYYADSVKGRFTISRDNAKNTVYLQMNSLKPEDTAVYYCAAVRRWYYPALSEHDYWGQGTQVTVSS | low polyreactivity
QVQLVESGGGLVQAGGSLRLSCAASGSTISYYAMGWYRQAPGKERELVAGISGSTGTTYYADSVKGRFTISRDNAKNTVYLQMNSLKPEDTAVYYCAKLFPVARPQYGYWGQGTQVTVSS | low polyreactivity
QVQLVESGGGLVQAGGSLRLSCAASGSTITHNAMGWYRQAPGKERELVATISSGGSTNYADSVKGRFTISRDNAKNTVYLQMNRLKPEDTAVYYCAKPRYRSHVVYGPASGDDYWGQGTQVTVSS | low polyreactivity
QVQLVESGGGLVQAGGSLRLSCAASGSTITQYAMGWYRQAPGKEREFVAAINSRGDSTYYADSVKGRFTISRDNAKNTVYLQMNSLKPEDTAVYYCNADYQTDDDPYGYDYWGQGTQVTVSS | low polyreactivity
QVQLVESGGGLVQAGGSLRLSCAASGSTIVDYAMGWYRQAPGKERELVAAITSGDSTNYADSVKGRFTISRDNAKNTVYLLMKSLKPEDTAVYYCAARLRYSFWYWDDYWGQGTQVSVSS | high polyreactivity
QVQLVESGGGLVQAGGSLRLSCAASGSTIVRYAMGWNRQAPGKERELVAAISSRGGCTYYADSVKGRFTISRDNAKNTVYLQMNSLKPEDTAVYYCNADYSVGSWGQGTQVTVSS | high polyreactivity
QVQLVESGGGLVQAGGSLRLSCAASGSTIVYNAMGWYRQAPGKEREFVAAISWSGGSTYYADSVKGRFTISRDNAKNTVYLQMNSLKPEDTAIYYCAATSRSNGFRYYYWGQGTQVTVSS | high polyreactivity
QVQLVESGGGLVQAGGSLRLSCAASGSTIWYYVMGWYRAAPGKERELVAAIRSNDGSTYYADSVKGRFTISRDNAKNTDYLQLNRLKPEDTAVYYCAADDWVYAQEYDYWGQGTQVTVSS | low polyreactivity
QVQLVESGGGLVQAGGSLRLSCAASGSTIYDNAMGWSRQAPGKERELVAAITWSVGRTYYADSVKGRFTISRDNAKNTVYLQMNSLKPEDTAVYYCAARYQYYSTYGVTLDYWGQGTQVTVSS | low polyreactivity
QVQLVESGGGLVQAGGSLRLSCAASGSTIYTYVMGWYRPAPGKERELVAAISWSGSSTYYADSVKGRFTISRDNAKNTVYLQMNSLKPEDTAVYYCNAQYRRGWWGVEYGYWGQGTQVTVSS | low polyreactivity
QVQLVESGGGLVQAGGSLRLSCAASGSTLARNVMGWYRQAPGKERELVAAISTSGGITYYADSVKGRFTISRDNAKNTVYLQMNSLKPEDTADYYCAKYYYNPYSKMDYWGQGTQVTVSS | low polyreactivity
QVQLVESGGGLVQAGGSLRLSCAASGSTLASYAMGWYRQAPGKERELVAAISLSGGSTYYADSVKGRFTISRDNAKNTVYLQMNSLKPEDTAVYYCAAETVRYEWGESPAALFDYWGQGTQVTVSS | low polyreactivity
QVQLVESGGGLVQAGGSLRLSCAASGSTLASYAMGWYRQAPGKERELVAAISSSGGSTYYADSVKGRFTISRDNAKNTVYLQMNSLKPEDTAVYYCAARTRTRYGIDYYWGQGTQVTVSS | high polyreactivity
QVQLVESGGGLVQAGGSLRLSCAASGSTLATNAMGWYRQAPGKERELVAYADSVKGRFTISRDNAKNTVYLQMNSLKPEDTAVYYCNVEAPGRAQYGYPQGDYWGQGTQVTVSS | low polyreactivity
QVQLVESGGGLVQAGGSLRLSCAASGSTLAVYAMGSYRQAPGKERELVAAISKRGGTTYYADSVKGRFTISRDNAKNTVYLQMYSLKPDDTAVYYCARESYYRGNYDYDYWGQGTQVTVSS | high polyreactivity
QVQLVESGGGLVQAGGSLRLSCAASGSTLDRNTMGWYRQAPGKERELVAAITSSGGRTYYADSVKGRFTISRDNEKNTVYFQMNSLKPDDTAVYYCNNDYWKRPVDEYDYWGQGTQVTVSS | high polyreactivity

Sequence | polyreactivity (PSR sort gate)
QVQLVESGGGLVQAGGSLRLSCAASGSTLDRYVMGWYRQATGKERELVAAISRNGGSTYYADSVKGRFTISRDNAKNTVYLQMNSLIPEDTAVYNCARYAGFPYTQGDYWGQGTQVTVSS | high polyreactivity
QVQLVESGGGLVQAGGSLRLSCAASGSTLDVYAMGWYRQAPGKERELVAAITVRATSTYYADSVKGRFTISRDNAKNTVYLQMNSQKPEDTAVYYCDARYEFFYKAFDVDSWGQGTQVTVSS | low polyreactivity
QVQLVESGGGLVQAGGSLRLSCAASGSTLDYNAMGWYRQAPGKEREFVADITWSGGSTHYADSVKGRFTISRDNSKNTVYLQMNSLKPEDTAVYYCATAYYYHGGYYYPYDDYWGQGTQVTVSS | low polyreactivity
QVQLVESGGGLVQAGGSLRLSCAASGSTLEFNAMGWYRQAPGKERELVAVINRSDGSTYYADSVKGRFTISRDNAKNTVYLQMNSLKPEDTADYYCAADRHQVSVISTEDYWGQGTQVTVSS | low polyreactivity
QVQLVESGGGLVQAGGSLRLSCAASGSTLEYYAMGWYRQAPGKERELVAAISSGGSTNYADSVKGRFTISRDNAKNTVYLQMNSLKTEDTAVYYCAAERYYRFVYTCYDYWGQGTQVTVSS | high polyreactivity
QVQLVESGGGLVQAGGSLRLSCAASGSTLFAYAMGWYRQAPGTERELVAAITSGASTNYADSVKGRFTISRDNAKNTVYLQMNSLKPEDTAVYYCAKDVSGTNPDYDYWGQGTQVTVSS | low polyreactivity
QVQLVESGGGLVQAGGSLRLSCAASGSTLFSYAMGWYRQAPRKEREFVAAISRRGGSTYYADSVKGRFTISRDNAKNTVYLQMNSLKPEVTAVYYCNTVRVHGFPIDRIYVYWGQGTQVTVSS | high polyreactivity
QVQLVESGGGLVQAGGSLRLSCAASGSTLFYAMGWYRQAPGKERELHAAISWSGGSTRYADSVKGRFTISRDNAKNTVYLQMNIMKPEDTAVYYCNTYTKHTGYYWKYDYWGQGTQVTVSS | low polyreactivity
QVQLVESGGGLVQAGGSLRLSCAASGSTLGGNAMGWYRRAPGKERELVAAITSSAGSTYYADSVKGRFTISRDNAKNTVYLQMNSLKPEDTAVYYCAADYSRDEYDYWGQGTQVTVSS | low polyreactivity
QVQLVESGGGLVQAGGSLRLSCAASGSTLGGYAMGWYRQAPGKERELVAAISGSRGSTYYADSVKGRFTISRDNAKNTVYLQMTSLKPEDTAVYYCAAGSYWVQYQYDYWGQGTQVTVSS | low polyreactivity
QVQLVESGGGLVQAGGSLRLSCAASGSTLGRYALGWYRQAPGKERELVASITWSDDSTYYADSVKGRFTISRDNAKNTVYLQMNSLKPEDTAVYYCAAAGNLYTYRFYYWGQGTQVTVSS | low polyreactivity
QVQLVESGGGLVQAGGSLRLSCAASGSTLGRYAMGWYRQAPGKERELVASITWSDDSTYYADSVKGRFTISRDNAKNTVYLQMNSLKPEDTAVYYCNAPPGTFQWQGHSDYWGQGTQVTVSS | low polyreactivity
QVQLVESGGGLVQAGGSLRLSCAASGSTLGRYSMGWYRQAPGKERELVAAISWRGGSTYYADSVKGRFTISRDNAKNTVYLQMNSLKPEDTPVYYCAATYRFSEYYYWGQGTQVTVSS | high polyreactivity
QVQLVESGGGLVQAGGSLRLSCAASGSTLGVNAMGWYRQAPGKEREFVAAITGRGGNTYYADSVKGRFTISRDNAKNTVYLQMNSLTPEDTAVYYCAARDKYTRYQSILDYYYWGQGTQVTVSS | high polyreactivity
QVQLVESGGGLVQAGGSLRLSCAASGSTLHEYAMGWSIQAPGKERELVAAISRGGGNTNYADSVKGRFTISRDNAKNTVYLQMNSLKPEDTAVYYCNARHGKIIFYLERYDYWGQGTQVTVSS | low polyreactivity
